For data set [1], the system named is K4 kissing-loop RNA reporter. The experiment in a line: apparent KD of K4 kissing-loop reporter; higher = weaker reporter binding. As to conditions: Eterna round: R107. As for the experimental part:
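RNA-MaP round R107: designed RNA switches with theophylline, tryptophan, arginine or FMN aptamers are transcribed on-chip within common flanks. They are titrated with a labelled K4 kissing-loop RNA reporter in RNA-MaP buffer (100 mM Tris pH 7.5, 80 mM KCl, 4 mM MgCl2), without ligand or with the indicated ligand. Median apparent KD per design.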

Data set [2] concerns MS2 coat protein. Kind of data set: apparent KD of MS2 coat protein; designed switch direction (-1 OFF switch, 1 ON switch): -1; higher = weaker reporter binding. Put shortly: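 RNA switches sharing common flanks were transcribed by stalled E. coli RNA polymerase on Illumina chips. A doubling series of SNAP-549-labelled MS2 coat protein, from 0.7 or 1.5 nM to 3 µM, was applied in Tris-HCl pH 7.5 buffer with KCl, MgCl2, BSA, DTT, tRNA and Tween-20. Each step lasted 0.8–1.5 h at the bottom of the series and 10–20 min at the top. Normalised cluster fluorescence was curve-fitted, giving apparent KD as the per-design median over clusters.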

[3] abbreviates: input ligand: theophylline 20 uM.
The mark [4] stands for this setting: input ligand: tryptophan 2.4 mM.
Setting [5] is: Eterna round: R95, input ligand: microRNA oligo, concentration not stated.
[6] abbreviates: Eterna round: R95, input ligand: FMN 200 uM.
[7] abbreviates: Eterna round: R95, input ligand: none.
The mark [8] stands for this setting: input ligand: microRNA oligo, concentration not stated.
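Wherever apparent KD of K4 kissing-loop reporter is given: bound reporter read as fluorescence of individual clusters on recovered sequencing chips by microscopy, with normalized cluster intensities fitted with a binding model.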

As for “GAAGGUCAAAGACCUUCGUGCACAACUGAUACCAGUCGCGAAAGCGACCCUUGGCAGCAGGGCAGUGAUGUUGCCAGUGCACAAA [Omei KL Theo A SS A v3]”, the “apparent KD of K4 kissing-loop reporter” value was 157 nM in data set [1] (input ligand: FMN 200 uM); 166 nM in data set [1] (input ligand: arginine 13.2 mM); 167 nM in data set [1] (input ligand: none); 124 nM in data set [1] (setting [3]); 169 nM in data set [1] (setting [4]).
As to “GUUUUAUAGGAGGAUACCAGUACAAAUAAAGUGCAUUAAUAGUAGAGUGAUGUUCUAAAGUACCCUUGGCAGCUUAGUUUAAGUU [#26 K4 Theophylline B Exclusion]”, the “apparent KD of K4 kissing-loop reporter” value in data set [1] (input ligand: FMN 200 uM) was 151 nM; in data set [1] (input ligand: arginine 13.2 mM), 278 nM; in data set [1] (input ligand: none) it was 185 nM; in data set [1] (setting [3]), 357 nM; in data set [1] (setting [4]), 100 nM.
For “GCCGUACGCAUGGAUACCAGCAUCAGAUCUUAGUGAUGUUAAGUCGAGAGUUGGUCAAAAUGCCCUUGGCAGCCAUGCGUACGGC” the same measures were 128 nM, 90.8 nM, 105 nM, 99.5 nM and 98.2 nM.
Take “UUUUUAAUCGCAGAUACCAGUCCAGAAUGAAUACUAUAGUGAUGUUAUAAUAAAGGGAAGGACCCUUGGCAGCUGUAAUAUAUUU [AstrosSsTheB#5]”: the “apparent KD of K4 kissing-loop reporter” value in data set [1] (input ligand: FMN 200 uM) was 386 nM; in data set [1] (input ligand: arginine 13.2 mM) it was 315 nM; in data set [1] (input ligand: none) it was 416 nM; in data set [1] (setting [3]), 318 nM; in data set [1] (setting [4]), 298 nM.
Take “UAUUGAGUGAUGUUCGAUAACCAAUCAGAUACCAGUUUUGUAGAAAACCCUUGGCAGCUGCUCAGCUCUAUAAUGCUUCGCCCUU [theeternabot_sameState_KL_Theo_A_18]”: the “apparent KD of K4 kissing-loop reporter” value in data set [1] (input ligand: FMN 200 uM) is 199 nM; in data set [1] (input ligand: arginine 13.2 mM), 169 nM; in data set [1] (input ligand: none), 208 nM; in data set [1] (setting [3]), 184 nM; in data set [1] (setting [4]), 177 nM.
In the case of “GUGCGGCUAGUGAUGUUGGUUGCGUGGGAAGGAGCGCAGUAAAAUGCAGGUAGGUCGCCCGCAUCUCUGAUAAAAGAUUAAUUCA [KL-SSArg-A9]”, the “apparent KD of K4 kissing-loop reporter” value in data set [1] (input ligand: FMN 200 uM) was 276 nM; in data set [1] (input ligand: arginine 13.2 mM), 196 nM; in data set [1] (input ligand: none), 228 nM; in data set [1] (setting [3]), 238 nM; in data set [1] (setting [4]), 228 nM.
As for “UUAUAUAGAGUGAGGAUAUGCUGGUCCUUGGAUCAGCAGAAGGCACAUGAGGAUCACCCAUGUAAUAUAAUAUU [Mat - Exclusion 4 - JL Mod - D38] (puzzle: Brourd's mod of Exclusion 4)”, in data set [2] (setting [5]), the “apparent KD of MS2 coat protein” value was found to be 21.1 nM.
On to “AAGAAUGAAGGAUAUACAUGAGGAUCACCCAUGUAAAAAAAAUUUUUUAGUUUUUCAUGUAGAAGGUCAAGAAG [JR_Exclusion3_Sub001] (puzzle: Exclusion 3)”, for which the “apparent KD of MS2 coat protein” value was 47.9 nM in data set [2] (setting [6]), 41.8 nM in data set [2] (setting [5]) and 43.6 nM in data set [2] (setting [7]).
Turning to “AGUACUUUCACGAAAGUGAAAGUACAAAUGAGCUUUUGAACAUGAGGAUCACCCAUGUCCUCAUAAGCUCGUCUUAA [Mat - Sensor v2 - var 2 - Mod - D175] (Eterna round: R96, puzzle: Sensor v2, turn-off variant 2)”, the “apparent KD of MS2 coat protein” value was determined as 28.3 nM in data set [2] (input ligand: FMN 200 uM), 458 nM in data set [2] (setting [8]) and 30.7 nM in data set [2] (input ligand: none).
As for “AUACCACGAGGAUAUCGUCUAUAAUACAUGAGGAUCACCCAUGUUAUAUAUGUAAUGUUUCGAGAAGGCGUGUUUU [JR_E5_Sub082] (puzzle: Exclusion 5)”, the “apparent KD of MS2 coat protein” value in data set [2] (setting [5]) is 14.7 nM.
As to “CGGUACUGAGGAUAUACAUGAGGAUCACCCAUGUGUACUAGCUAGCGUACUGGCAUUAGUAGAAGGCGGUGCUG [JL-ex3-3.20 Brourd mod] (puzzle: Exclusion 3)”, the “apparent KD of MS2 coat protein” value in data set [2] (setting [6]) was determined as 19.8 nM; in data set [2] (setting [5]) it was 11.5 nM; in data set [2] (setting [7]), 13.2 nM.
For “GAAAAGGUAGGAUAUACGAAAAAAAAGGGUAGAAAGAAAACACAUGAGGAUCACCCAUGUAGAAGGACCAAAAG [salish99_ex2_r3_017] (puzzle: Exclusion 2)”, the “apparent KD of MS2 coat protein” value in data set [2] (setting [6]) came out at 66.1 nM; in data set [2] (setting [5]), 27.3 nM; in data set [2] (setting [7]) it was 20.7 nM.
In the case of “UACAUGAGGAUCACCCAUGUUUUGUCGUGUAUGGUAUUUAUCUAGGAUAUCAUUUUAAUUAGUUAUGAGAAGGAGAAUAUUAAU [JMF's solution 87] (Eterna round: R96, puzzle: Exclusion NG 3)”, the results for the “apparent KD of MS2 coat protein” value in data set [2] (input ligand: FMN 200 uM), in data set [2] (setting [8]) and in data set [2] (input ligand: none) were 33.7 nM, 24.4 nM and 32.5 nM, respectively.
As to “GUCAGCUCGUCAGGAUAUACAUGAGGAUCACCCAUGUGGUCAUUAGCAGCUUCGGCUGCAUUAAUGUAGAAGGGACGAGCUGAC [ENG2/8-B1] (Eterna round: R96, puzzle: Exclusion NG 2)”, the “apparent KD of MS2 coat protein” value in data set [2] (input ligand: FMN 200 uM) is 1120 nM; in data set [2] (setting [8]), 357 nM; in data set [2] (input ligand: none) it was 591 nM.
As to “GAUUAUGCGAGCUUUAGGGACAUGAGGAUCACCCAUGUUCGUCUUAUUAAUCUAGGUGCGCUAACAUACCUAAAUCU [JMF 47] (puzzle: Sensor v3, turn-off variant 1)”, the “apparent KD of MS2 coat protein” value is 21.5 nM in data set [2] (setting [6]), 32 nM in data set [2] (setting [5]) and 23.7 nM in data set [2] (setting [7]).
“UGUUUAUAUGAAGGAUAUACUUAACAUGAGGAUCACCCAUGUGGUGUUGUGAGUGAGUGAGUUUAGUAGAAGGUCAAUUAUUUU [JMF's solution 31] (Eterna round: R96, puzzle: Exclusion NG 2)”: the “apparent KD of MS2 coat protein” value in data set [2] (setting [8]) is 303 nM.
Take “GCCGAAAGUGUGAGGAUAUACCUAUGGAAACAUAGGUAGAAGGCACAUGAGGAUCACCCAUGUGUUUCAACGGC [Mat - Exclusion 4 - Eli Mod - D20] (Eterna round: R97, puzzle: Brourd's mod of Exclusion 4)”: the “apparent KD of MS2 coat protein” value in data set [2] (input ligand: FMN 200 uM) stood at 67 nM; in data set [2] (input ligand: none) it was 24.5 nM.
As to “CUGCGUCGUGUUAGGAUAUCCAGCGGUGCGCGCCAGGAGAAGGAACAUGAGGAUCACCCAUGUAAACCGAUGGC [Aratte] (puzzle: Brourd's mod of Exclusion 4)”, in data set [2] (setting [5]), the “apparent KD of MS2 coat protein” value was 11 nM.
Still for that read-out and setting: under “GGUGGACAUGAGGAUCACCCAUGUGAGGAUAUCGGCUGGCUAGCGGCUGACGGCUGCUCGAGAAGGCGCAUUGU [Exclusion 1 V85] (puzzle: Exclusion 1)” stands 50.5 nM.
As to “AGGGAAGAGUGAGGAUAUGGAAAUUUGGUGAGAACAUGAGGAUCACCCAUGUGGAAACAAGAAAAUUAGAAGGUAUAGGGAGGG [AK ExNG2-1.2] (Eterna round: R96, puzzle: Exclusion NG 2)”, the “apparent KD of MS2 coat protein” value in data set [2] (input ligand: FMN 200 uM) came out at 48 nM; in data set [2] (setting [8]), 45.3 nM; in data set [2] (input ligand: none), 61.3 nM.
With “AGUUGCGCAGGAUAUACAUGAGGAUCACCCAUGUGAGAGAAAUAAGUGAGGAAGAAAAGUAGAAGGGCGUGACA [Mat - Exclusion 3 - Mod of Salish D74] (puzzle: Exclusion 3)”, the figures for the “apparent KD of MS2 coat protein” value in data set [2] (setting [6]), in data set [2] (setting [5]) and in data set [2] (setting [7]) were 236 nM, 40.6 nM and 47.1 nM, respectively.
Consider “GGCGACCUAGGAUAUACAUGAGGAUCACCCAUGUUUAUCUAAUAGAUGAAGACGGGUUGUAGAAGGAGGAAAAU [Geriin] (puzzle: Exclusion 3)”, for which the “apparent KD of MS2 coat protein” value in data set [2] (setting [5]) was determined as 13.1 nM.
As to “UCCACAUGAGGAUCACCCAUGUAAGGUGAGUAAAAGAAGAGGCAGGAUAUUGAAGCGACCUCGCCCAAGAAGGGCCUCACCAAA [Eternabot solution 11] (Eterna round: R96, puzzle: Exclusion NG 3)”, the “apparent KD of MS2 coat protein” value was 72.2 nM in data set [2] (input ligand: FMN 200 uM), 44.8 nM in data set [2] (setting [8]) and 60.6 nM in data set [2] (input ligand: none).
On to “GUGUAACAAGGAUAUACAUGAGGAUCACCCAUGUGAAUAAGAUUGAAUAAGAUAAAGUGUAGAAGGUGUAGUGU [Excluse me!!! 9 - Jieux - Exclusion 3] (puzzle: Exclusion 3)”, for which the “apparent KD of MS2 coat protein” value in data set [2] (setting [6]) turned out to be 32.5 nM; in data set [2] (setting [5]) it was 31.6 nM; in data set [2] (setting [7]), 37.1 nM.
For “ACAAGACAUGAGGAUCACCCAUGUGGUCGGAUGUCAAAGACCGAGGAUAUCAGCGACUGCGCCGCUGAGAAGGCGGAUGGUGCU [Telaed] (Eterna round: R96, puzzle: Exclusion NG 3)”, the “apparent KD of MS2 coat protein” value is 1260 nM in data set [2] (input ligand: FMN 200 uM), 476 nM in data set [2] (setting [8]) and 652 nM in data set [2] (input ligand: none).

The values above are taken from the supplement of paper PMC9170038.
